Biological target: GFP-BAX fusion protein
Experiment: cell-based or functional assay

percentage of cells with punctate GFP-BAX (translocation to mitochondria) within 3.5 h after 1 µM staurosporine, live imaging of D407 cells [%] | percentage of cells with GFP-BAX translocation to mitochondria within 3.5 h after 1 µM staurosporine, live imaging of D407 cells (control without BCLXL) [%] | Substance
8 | – | mCherry-BCLXL fusion protein (from UniProt Q64373 1-233)
– | > 95 | mCherry

From patent publication US20230392166A1
